In general, Kd refers to the free concentration of one partner at which half of the binding sites on the other are occupied at equilibrium, for simple one-to-one binding.

Experiment [1] concerns allogeneic activation / T cell proliferation. In words: human mixed lymphocyte reaction (MLR). It is filed as cell-based. An excerpt:
Human mixed lymphocyte reaction (MLR).
(§1) Inhibition of T cell proliferation, inflammatory cytokine production, and allogeneic activation. […] An anti-MCT1 antibody or antibody fragment of the invention may also be tested for its ability to inhibit the production of inflammatory cytokines, relative to controls, in stimulated T cells on day 3 post-stimulation. MCT1 Ab1As with CD3/CD28 activation, MCT1 Ab1 inhibited allogeneic activation by 50-60% in a human mixed lymphocyte reaction (see, e.g., FIG. 17).

Another experiment deals with T cell proliferation. In words: T cell proliferation assay (CD3/CD28 stimulated). Type of experiment: cell-based, human. The conditions noted are these: CD3/CD28 stimulated cultures; read-out: EC50 inhibition of T cell proliferation. Here is the method:
MCT1, MCT2, MCT4, and BSG (CD147) expression were measured in unstimulated and stimulated leukocytes from two different donors. For the “stimulated” condition, cells were CD3/CD28 activated for 3 days. Stimulated cells were tested for inhibition of proliferation by AZ3965.
Human T cell proliferation.
as §1

A further experiment deals with CD4+ and CD8+ T cells. Description: proliferation of CD4+ and CD8+ T cells. It is filed as cell-based. The conditions noted are these: different antibody concentrations.
In another experiment the target is T1, MCT1 (Homo sapiens, UniProt P53985).
T1 construct: HEK-293 WT cells only express MCT1/CD147 and no other MCTs as measured by RT-PCR; endogenous in cells; host or cells: HEK293T
T1 sequence (P53985 1-500): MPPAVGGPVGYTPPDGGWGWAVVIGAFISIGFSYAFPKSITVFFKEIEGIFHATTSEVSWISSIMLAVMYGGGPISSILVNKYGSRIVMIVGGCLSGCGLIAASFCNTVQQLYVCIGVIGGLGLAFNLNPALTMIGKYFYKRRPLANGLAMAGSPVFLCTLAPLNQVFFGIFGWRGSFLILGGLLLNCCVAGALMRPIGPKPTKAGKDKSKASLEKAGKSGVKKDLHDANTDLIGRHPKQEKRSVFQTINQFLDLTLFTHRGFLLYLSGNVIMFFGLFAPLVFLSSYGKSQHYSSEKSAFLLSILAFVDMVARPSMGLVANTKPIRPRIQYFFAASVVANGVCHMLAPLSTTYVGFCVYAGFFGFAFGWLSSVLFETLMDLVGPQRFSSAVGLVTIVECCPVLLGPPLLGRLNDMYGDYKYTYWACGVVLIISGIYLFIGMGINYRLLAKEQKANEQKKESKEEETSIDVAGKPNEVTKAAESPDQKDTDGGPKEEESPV
In words: bromopyruvate toxicity assay (ATPlite). It is filed as cell-based. The conditions noted are these: bromopyruvate 150 μM; ATPlite; read-out: Kd for inhibition of bromopyruvate toxicity (protection from cell death). Here is the method: Inhibition of bromopyruvate toxicity. Since MCT1 is the sole transporter necessary for the in vitro efficacy of the anti-cancer toxin bromopyruvate (Reference 66), a second cell-based functional assay was developed to measure the in vitro killing of cells using this toxin at a concentration of 150 μM.
HEK293T cells are pre-treated with anti-MCT1 antibody or small molecular MCT1 inhibitor at 37° C. for 1 hour. Cells are then incubated with a cytotoxic reagent 3-bromopyruvate (3-BrPy) at concentrations that rand from 25 to 500 μM for 2 to 6 hours. ATP from dying cells will be quantified using a commercial viability kit (ATPlite, PerkinElmer) in a 96-well plate and viability measured using luminescence. Reduction of ATP production indicates functionality of the antibody. A positive control antibody is the mouse or chimeric antibody before humanization. A negative control cell line is MCT1/CD147 double knockout 293T cells. Using this assay functional, i.e., antagonistic anti-MCT1 antibodies may be identified.

The subject of the next experiment is human T cells. In words: metabolomics of treated T cells. The conditions noted are these: preliminary. Type of experiment: cell-based.
For a further experiment, the target named is T2, MCT1 on T cells (Homo sapiens, UniProt P53985).
T2 construct: endogenous in cells
T2 sequence (P53985 1-500): T1 sequence (P53985 1-500)
In words: staining of naive and activated T cells. It is filed as binding. An excerpt:
The only staining in FIG. 13A corresponds to nucleus staining, confirming the presence of the naïve T cells.
MCT1 Ab1 binding to activated T cells. […] This binding confirms the expression data presented in FIG. 2 and confirms the prediction based on mRNA analysis.

For the next experiment, the system named is cynomolgus MCT1. In words: flow cytometry binding to PBMCs, cynomolgus. An excerpt: FIG. 12A-D show the cross-reactivity of MCT1 Ab1 as assessed via flow cytometry measurements of binding to MCT1 on the surface of different species' PBMCs.
Binding affinity and MCT1 cross-reactivity. […] MCT1 Ab1 is also highly cross-reactive with cynomolgus (cyno) and rabbit MCT1, but not with rodent MCT1 (FIG. 12A-D).
For orientation: A flow cytometer gives signals particle by particle.

B1: MCT1 Ab1: rat anti-human MCT1 monoclonal antibody (rat/human chimera); VH/VL SEQ ID NO: 2/3 (antibody, V domains shown)
VH: QVQLKATGPGLVQPTQTLSITCTVSGFSLTNYHLQWVRQTPGKGLEWMGFIRSSGNTEYNSEFKSRLSISRDTSKNQVFLKMNSLKTDDTGVYYCARNSWYHGTYYSPGYYVMDAWGQGASVTVSS
VL: NIHLTQSPSLLSASVGDRVTLSCKGSQNINNYLAWFQQKFGETPKLLIYNRHNLQTGIPSRFSGSGSGTDYTLTINSLQPEDVATYFCYQYSDGYTFGAGTKLELK
modifications: MCT1 Ab1 (INX310) VH; MCT1 Ab1 (INX310) VL
B1: the “inhibition of allogeneic activation” value in experiment [1] was 50-60%. Besides, the EC50 in the experiment on T cell proliferation was 1.3 nM. The “proliferation of CD4+ and CD8+ T cells” value in the experiment on CD4+ and CD8+ T cells is “inhibited the proliferation of CD4^+ and CD8^+ T cells”. Besides, the Kd in the experiment with MCT1 is 1.2 nM. The “metabolomics findings in treated T cells” value in the experiment with human T cells was “improved generation of ATP and NADH, along with increased oxidative metabolism and viability”. In the experiment with MCT1 on T cells (CD3/CD28 activated cells, day 3), the “staining of activated T cells” value is “stains the surface of CD3/CD28 activated cells on day 3”. For the same molecule, in the experiment with MCT1 on T cells (naïve cells), the “staining of naive T cells” value is listed as “does not stain naïve cells”. The “binding to MCT1 on PBMCs” value in the experiment on cynomolgus MCT1 is given as “binds to cynomolgus MCT1”.
